Source: patent US20120076780A1
pKd: −log10 of the molar value. Read-outs that look alike come from different tables or passages of the source. Each block holds one substance with its values, some of them ahead of it.

Assays:
[1] = target: MUC1, secreted isoform from conditioned medium of MUC1-transfected DA3 cells (UniProt P15941); test: ELISA on coated MUC1 conditioned medium; apparent affinity from the half-maximal binding signal
[2] = target: MUC1 on cells (T47D, MCF7, DA3-MUC1) (human) (UniProt P15941); test: whole-cell ELISA on T47D cells; apparent affinity from the half-maximal binding signal
[3] = target: ErbB-1 (EGFR) on human cancer cells (SCC-1, SCC-9, C1-1 clone 3, C1-1 clone 7) (human) (UniProt P00533); test: cell-based or functional assay
[4] = target: ErbB2 on human tumor cells (SKBR3, A431, T47D, MCF7, MDA-MB231) (human) (UniProt P04626); test: whole-cell ELISA on SKBR3 cells, anti-PE detection, after 24 h at 37 C in 100% human serum
[5] = target: ErbB2 on human tumor cells (SKBR3, A431, T47D, MCF7, MDA-MB231) (human) (UniProt P04626); test: cell-based or functional assay
[6] = target: ErbB-1 (EGFR) on human cancer cells (SCC-1, SCC-9, C1-1 clone 3, C1-1 clone 7) (human) (UniProt P00533); test: cell-based or functional assay; remark: listed apart in the source
[7] = target: ErbB-1 (EGFR) on human cancer cells (SCC-1, SCC-9, C1-1 clone 3, C1-1 clone 7) (human) (UniProt P00533); test: cell-based or functional assay; remark: listed apart in the source

- pKd [1]: 9.52
- pKd [2]: 9.52
Substance: chimeric H23 IgG1 (from UniProt P01857 1-330) (antibody)

Substance: cross-linked cetuximab-ZZ-PE38 immunotoxin complex
- IC50, cell survival, XTT assay, SCC-1 cells [3]: 7.54 ng/mL

Substance: chFRP5-ZZ-PE38 immunoconjugate (from UniProt P01857 1-330)
- decrease of binding activity [4]: 17%
- IC50 (ng/ml), cell killing, MTT assay 48 h, MCF7 cells [5]: 600 ng/mL
- IC50 (ng/ml), cell killing, MTT assay 48 h, MDA-MB231 cells [5]: > 10000 ng/mL
- IC50 (ng/ml), cell killing, MTT assay 48 h, T47D cells [5]: 1000 ng/mL
- IC50 (pM), cell killing, MTT assay, A431 cells [5]: 10 pM
- IC50 (pM), cell killing, MTT assay, MCF7 cells [5]: 300 pM

- pKd [1]: 9.70
- pKd [2]: 9.60
Substance: murine H23 mAb (antibody)

Substance: scFv(FRP5)-ETA
- IC50 (pM), cell killing, MTT assay, A431 cells [5]: 52 pM

Substance: cetuximab-ZZ-PE38 complex (non-cross linked)
- IC50, cell survival, XTT assay, SCC-1 cells [6]: 0.47 ng/mL
- percent of SCC-1 cells killed at 0.001 µg/ml of immunotoxin complex [6]: 80%
- IC50, cell survival, XTT assay, SCC-1 cells [3]: 0.31 ng/mL
- IC50, cell survival, XTT assay, C1-1 prostate cancer cells clone 3 [7]: 12 ng/mL
- IC50, cell survival, XTT assay, C1-1 prostate cancer cells clone 7 [7]: 38 ng/mL
- IC50, cell survival, XTT assay, SCC-1 cells [7]: 0.261 ng/mL
- IC50, cell survival, XTT assay, SCC-9 cells [7]: 0.073 ng/mL
